Source: patent US6927039B2, “Enzymatic process” (Nanobiodesign Limited, priority 2000, dated 2005)

Tests used:
Assay in all cases: Substrate-dependent NADPH consumption assay at 340 nm, purified enzyme (in vitro)
Assay type in all cases: biochemical, Bacillus megaterium
Conditions in all cases: other: purified enzyme, NADPH 130-150 μM, 20° C., pH 8.0
[1] = substrate: CCCCCCCCCCCCOS(=O)(=O)[O-].[Na+]
Procedure: (§1) NADPH consumption was followed at 340 nm using a Δε340=6.22 mM^−1·cm^−1. Both assays were performed at 20° C. using P450 BM3 in 100 mM potassium phosphate buffer, pH 8.0. Reaction was initiated by addition to the substrate bound enzyme of NADPH to a final concentration of 130-150 μM. In the kinetics assay the rate constant kcat was calculated from the linear part of the decrease in A340 with time, which lasted at least for the first 4 sec. The enzyme concentration typically varied between 0.4 and 0.8 μM in the binding assay and between 8 and 25 nM in the catalytic assay. Substrate stock solutions were freshly prepared the day of the assay. Fatty acid stock solutions were in 50 mM potassium carbonate, SDS was easily dissolved in water, while TCE stock solutions were prepared in ethanol. If appropriate, stocks of candidate agents may be prepared in, for example, N,N-dimethylformamide just before the assay. […] The confidence interval for Kd given in the results section is the mean±the standard deviation of at least four measurements, as calculated using the software Kaleidagraph. Similarly kcat was calculated by fitting data points to the Michaelis-Menten equation. Each data point is the mean of at least four measurements.

[2] = substrate: CCCCCCCCCCCC(=O)O
Procedure: as §1

[3] = substrate: CCCCC/C=C\C/C=C\C/C=C\C/C=C\CCCC(=O)O
Procedure: as §1

[4] = substrate: ClC(Cl)C(Cl)Cl
Procedure: as §1

B1: cytochrome P450 BM3 (Priestia megaterium NBRC 15308 = ATCC 14581) (protein)
chain: MTIKEMPQPKTFGELKNLPLLNTDKPVQALMKIADELGEIFKFEAPGRVTRYLSSQRLIKEACDESRFDKNLSQALKFVRDFAGDGLFTSWTHEKNWKKAHNILLPSFSQQAMKGYHAMMVDIAVQLVQKWERLNADEHIEVPEDMTRLTLDTIGLCGFNYRFNSFYRDQPHPFITSMVRALDEAMNKLQRANPDDPAYDENKRQFQEDIKVMNDLVDKIIADRKASGEQSDDLLTHMLNGKDPETGEPLDDENIRYQIITFLIAGHETTSGLLSFALYFLVKNPHVLQKAAEEAARVLVDPVPSYKQVKQLKYVGMVLNEALRLWPTAPAFSLYAKEDTVLGGEYPLEKGDELMVLIPQLHRDKTIWGDDVEEFRPERFENPSAIPQHAFKPFGNGQRACIGQQFALHEATLVLGMMLKHFDFEDHTNYELDIKETLTLKPEGFVVKAKSKKIPLGGIPSPSTEQSAKKVRKKAENAHNTPLLVLYGSNMGTAEGTARDLADIAMSKGFAPQVATLDSHAGNLPREGAVLIVTASYNGHPPDNAKQFVDWLDQASADEVKGVRYSVFGCGDKNWATTYQKVPAFIDETLAAKGAENIADRGEADASDDFEGTYEEWREHMWSDVAAYFNLDIENSEDNKSTLSLQFVDSAADMPLAKMHGAFSTNVVASKELQQPGSARSTRHLEIELPKEASYQEGDHLGVIPRNYEGIVNRVTARFGLDASQQIRLEAEEEKLAHLPLAKTVSVEELLQYVELQDPVTRTQLRAMAAKTVCPPHKVELEALLEKQAYKEQVLAKRLTMLELLEKYPACEMKFSEFIALLPSIRPRYYSISSSPRVDEKQASITVSVVSGEAWSGYGEYKGIASNYLAELQEGDTITCFISTPQSEFTLPKDPETPLIMVGPGTGVAPFRGFVQARKQLKEQGQSLGEAHLYFGCRSPHEDYLYQEELENAQSEGIITLHTAFSRMPNQPKTYVQHVMEQDGKKLIELLDQGAHFYICGDGSQMAPAVEATLMKSYADVHQVSEADARLWLQQLEEKGRYAKDVWAG
notes: expressed in transfected cells; host or cells: E. coli BL21(DE3) transformed with pT7Bm3Z
Question: With B1 as the protein, how does the Km [1] read?
Answer: 0.51 ± 0.12 µM

Question: What about the kcat [1] of the same protein?
Answer: 2605 ± 61 mole NADPH/min/mole P450

Question: And the Km [2]?
Answer: 67.8 ± 14.5 µM

Question: What about the kcat [2] of the same protein?
Answer: 1928 ± 114 mole NADPH/min/mole P450

Question: And the Km [3]?
Answer: 0.37 ± 0.07 µM

Question: And the kcat [3]?
Answer: 3570 ± 88 mole NADPH/min/mole P450

Question: And the Km [4]?
Answer: 7960 ± 2041 µM

Question: And the kcat [4]?
Answer: 5133.5 ± 641.3 mole NADPH/min/mole P450
